The text below walks through data of publication PMC9584538 (Cell reports, 2022).

Residue numbers refer to the chain shown, from its start. Numbers in names are those of the source. Where “and” joins values, the source holds several entries; their conditions need not be identical. Equal entries are not always repeated.

First the molecules themselves.
T1: PARL-protease-activated Skd3 (human CLPB), wild type (human, UniProt Q9H078 127-707)
T1 sequence (looked up): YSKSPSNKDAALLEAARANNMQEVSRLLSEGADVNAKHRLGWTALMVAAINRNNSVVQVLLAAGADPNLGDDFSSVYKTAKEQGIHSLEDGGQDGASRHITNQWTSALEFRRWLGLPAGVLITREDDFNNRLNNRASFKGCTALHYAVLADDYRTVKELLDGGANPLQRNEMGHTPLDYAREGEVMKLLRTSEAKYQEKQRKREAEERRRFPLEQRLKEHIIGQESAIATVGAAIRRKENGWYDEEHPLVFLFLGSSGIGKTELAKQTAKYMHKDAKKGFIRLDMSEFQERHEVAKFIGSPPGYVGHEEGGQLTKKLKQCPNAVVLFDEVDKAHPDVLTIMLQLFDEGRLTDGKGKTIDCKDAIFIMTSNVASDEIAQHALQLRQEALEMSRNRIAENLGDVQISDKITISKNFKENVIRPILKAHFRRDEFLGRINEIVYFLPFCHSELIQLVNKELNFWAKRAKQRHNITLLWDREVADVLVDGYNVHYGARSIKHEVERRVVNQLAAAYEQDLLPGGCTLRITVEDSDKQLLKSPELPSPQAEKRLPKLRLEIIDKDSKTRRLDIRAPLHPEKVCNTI

B1: _(PARL)Skd3^Δ3-4 (ankyrin repeats 3 and 4 deleted, ΔS263-K325) (enzyme, human, UniProt Q9H078 127-707, looked up)
chain: YSKSPSNKDAALLEAARANNMQEVSRLLSEGADVNAKHRLGWTALMVAAINRNNSVVQVLLAAGADPNLGDDFSSVYKTAKEQGIHSLEDGGQDGASRHITNQWTSALEFRRWLGLPAGVLITREDDFNNRLNNRAQRKREAEERRRFPLEQRLKEHIIGQESAIATVGAAIRRKENGWYDEEHPLVFLFLGSSGIGKTELAKQTAKYMHKDAKKGFIRLDMSEFQERHEVAKFIGSPPGYVGHEEGGQLTKKLKQCPNAVVLFDEVDKAHPDVLTIMLQLFDEGRLTDGKGKTIDCKDAIFIMTSNVASDEIAQHALQLRQEALEMSRNRIAENLGDVQISDKITISKNFKENVIRPILKAHFRRDEFLGRINEIVYFLPFCHSELIQLVNKELNFWAKRAKQRHNITLLWDREVADVLVDGYNVHYGARSIKHEVERRVVNQLAAAYEQDLLPGGCTLRITVEDSDKQLLKSPELPSPQAEKRLPKLRLEIIDKDSKTRRLDIRAPLHPEKVCNTI
B2: _(PARL)Skd3^A591V (MGCA7-linked variant) (enzyme, human, UniProt Q9H078 127-707, looked up)
chain: T1 sequence (looked up) with A465V
B3: _(PARL)Skd3^R620C (SCN-linked variant, sensor-2) (enzyme, human, UniProt Q9H078 127-707, looked up)
chain: T1 sequence (looked up) with R494C
B4: _(PARL)Skd3^N496K (SCN-linked variant, sensor-1) (enzyme, human, UniProt Q9H078 127-707, looked up)
chain: T1 sequence (looked up) with N370K
B5: _(PARL)Skd3^R408G (MGCA7-linked variant) (enzyme, human, UniProt Q9H078 127-707, looked up)
chain: T1 sequence (looked up) with R282G
B6: _(PARL)Skd3^R561G (SCN-linked variant, Arg finger) (enzyme, human, UniProt Q9H078 127-707, looked up)
chain: T1 sequence (looked up) with R435G
B7: _(PARL)Skd3^R475Q (MGCA7-linked variant) (enzyme, human, UniProt Q9H078 127-707, looked up)
chain: T1 sequence (looked up) with R349Q
B8: _(PARL)Skd3^K387A (Walker A) (enzyme, human, UniProt Q9H078 127-707, looked up)
chain: T1 sequence (looked up) with K261A

The first data set concerns the molecule itself. The experiment in a line: SEC. (In general: Size exclusion chromatography separates by hydrodynamic size, large species first.)
Turning to B1, the stoichiometry N – broadly, the number of molecules, sites or subunits per partner or assembly – is 12.

Another data set deals with the molecule itself. Put plainly: SEC. The source holds these as a separate data set.
In the case of B2, the “stoichiometry N” value is 6 and 12. Still for that read-out and setting: in the case of B3 it was 12; in that of B4, 6. As for B5, the “stoichiometry N” value turned out to be 12.

For B6, the “stoichiometry N” value turned out to be 12. On the same count and under the same terms, as for B7, the figure is 12.

The target of the next data set is T1, PARL-protease-activated Skd3 (human …). The experiment in a line: FRET or BRET. In general terms: In BRET a luciferase serves as donor, and the signal depends on an acceptor being close.
Regarding B2, the binding result is “binds”. On to B3, for which the binding result is recorded as “binds”. Still for that read-out and setting: as for B8, the entry is “binds”.

Take B4: the binding result is “binds”. Still for that read-out and setting: in the case of B5 it was “binds”; in that of B6, “binds”. In the case of B7, the binding result was “binds”.
